Measured values: US20220243196, “[…] METHOD OF APTAMER AND IMMUNOASSAY USING THE APTAMER” (SB BIOSCIENCE CO., LTD., published 2022)

Tests used:
[1] = molecular target: HIV-1 p24 (Human immunodeficiency virus 1, UniProt P04591 P04591:133-363); test: ELONA; antibody-antigen-aptamer sandwich with RPA readout
[2] = molecular target: SARS-CoV-2 NP (SARS-CoV-2, UniProt P0DTC9 P0DTC9:1-419); test: ELONA
[3] = molecular target: Ebola NP (Ebola virus, UniProt P18272 P18272:1-739); test: ELONA

B1: HIV-1 p24 aptamer (ssDNA)
DNA: AGATACTGCCATTCATTGCATCGAGCACGCGACTGATGAGGATGGTCTAGTAGCTGGGGTCGAGTACTAAGCTATGTGTCGA
binding result [1]: binds

B2: SARS-CoV-2 NP aptamer (ssDNA)
DNA: ATCCAGAGTGACGCAGCAAACCCAAGCAAACTACCTCTATACCCTTCGACCTTCATCATGGACACGGTGGCTTAGT
binding result [2]: binds

B3: Ebola NP aptamer (ssDNA)
DNA: GATGTGAGTGACGTGGATCGAGCGGATGTGAAGGCTGAAAGTGGCTTTGGGCGGTCGTAAGTGTCACAGAGCATGCAACAAGACC
binding result [3]: binds
